# Reference: US11690918B2, “Pyrrolobenzodiazepine-anti-CD22 antibody conjugates” (ADC THERAPEUTICS S.A., priority 2012, dated 2023)
# Legend:
# SU-DHL-1 cells = experiment: In vitro cytotoxicity of ADCs, SU-DHL-1 (CD22 -ve control); assay type: cell-based; conditions: 4 days incubation, Alamar Blue
# Description: (§1) WSU-DLCL2 and SU-DHL-1 cells were from the Leibniz Institute DSMZ-German Collection of Microorganisms and Cell Cultures. Ramos and Daudi cells were from the American Type Culture Collection. Cell culture medium was RPMI 1640 supplemented with L-Glutamine and 10% FBS. Cells were grown at 37° C., 5% CO2, in a humidified incubator.
# (§2) The concentration and viability of cultures of suspended cells (at up to 1×10^6/ml) were determined by mixing 1:1 with Trypan blue and counting clear (live)/blue (dead) cells with a haemocytometer. The cell suspension was diluted to the required seeding density (generally 10^5/ml) and dispensed into 96-well flat bottomed plates. For Alamar blue assay, 100 μl/well was dispensed in black-well plates. […] After incubation for 4 days, cell viability was measured by either Alamar blue or MTS assay.
# (§3) AlamarBlue® (Invitrogen, catalogue number DAL1025) was dispensed (20 μl per well) into each well and incubated for 4 hours at 37° C. in the CO2-gassed incubator. Well fluorescence was measured at excitation 570 nm, emission 585 nm. Cell survival (%) was calculated from the ratio of mean fluorescence in the 4 ADC-treated wells compared to the mean fluorescence in the 4 control wells (100%).
# (§4) MTS (Promega, catalogue number G5421) was dispensed (20 μl per well) into each well and incubated for 4 hours at 37° C. in the CO2-gassed incubator. Absorbance was measured at 490 nm. […]
# Daudi cells = experiment: In vitro cytotoxicity of ADCs, Daudi; assay type: cell-based; conditions: FIG. 1, Alamar Blue
# Description: as §1, §2, §3, §4
# Ramos xenograft = experiment: In vivo anti-tumour activity, Ramos mouse xenograft model; conditions: NCr nu/nu mice, single dose 1.0 mg/kg IV, FIG. 3
# Description: The CD22+(ve) human Burkitt's lymphoma-derived cell line Ramos was used in a mouse xenograft model to test the in vivo efficacy of the Epratuzumab-A ADC. As a non-CD22-binding control, the anti-HIV gp120 antibody, B12, linked to A was used in the same model.
# Procedures: • Set up CR female NCr nu/nu mice with l× Ramos-SPN tumor cells in 0% Matrigel sc in flank. • Cell Injection Volume is 0.1 mL/mouse. • Age at Start Date: 8 to 12 weeks. • Perform a pair match when tumors reach an average size of 100-150 mm^3 and begin treatment. • Body Weight: qd×5 then bi-wk to end • Caliper Measurement: bi-wk to end • Report any adverse reactions or death immediately. • Any individual animal with a single observation of >30% body weight loss or three consecutive measurements of >25% body weight loss will be euthanized. • Any group with two measurements of mean body weight loss of >20% or >10% mortality will stop dosing. The group is not euthanized and recovery is allowed. Within a group with >20% weight loss, individuals hitting the individual body weight loss endpoint will be euthanized. […] Animals are to be monitored individually. […]
# For the calculation of group mean tumor volumes the following rule was applied: when an animal exited the study due to tumor size, the final tumor volume recorded for the animal was included with the data used to calculate the mean volume at subsequent time points. […]
# Ramos cells = experiment: In vitro cytotoxicity of ADCs, Ramos; assay type: cell-based, human; conditions: FIG. 1, Alamar Blue
# Description: as §1, §2, §3, §4
# WSU-DLCL2 cells = experiment: In vitro cytotoxicity of ADCs, WSU-DLCL2; assay type: cell-based; conditions: FIG. 1, Alamar Blue
# Description: as §1, §2, §3, §4
molecule,measurement,setting,value
"Epratuzumab-A: ADC targeted to CD22, generated by conjugating anti-CD22 antibody Epratuzumab to warhead-linker A (conjugate) VH: QVQLVQSGAEVKKPGSSVKVSCKASGYTFTSYWLHWVRQAPGQGLEWIGYINPRNDYTEYNQNFKDKATITADESTNTAYMELSSLRSEDTAFYFCARRDITTFYWGQG VL: DIQLTQSPSSLSASVGDRVTMSCKSSQSVLYSANHKNYLAWYQQKPGKAPKLLIYWASTRESGVPSRFSGSGSGTDFTFTISSLQPEDIATYYCHQYLSSWTFGQG",EC50 SUDHL1,SU-DHL-1 cells,~6.776 µg/mL
same,cytotoxicity against Daudi cells,Daudi cells,significant cytotoxicity
same,anti-tumor activity (mean tumour volume),Ramos xenograft,most potent anti-tumor activity
same,cytotoxicity against Ramos cells,Ramos cells,significant cytotoxicity
same,cytotoxicity against WSU-DLCL2 cells,WSU-DLCL2 cells,significant cytotoxicity
